In patent US20230060095A1 (Regeneron, published 2023):
Where a chain is given by its changes, count along the chain named. One block for each binder: values may come before it.

Tests used:
[1] = biological target: HLA-A2/PRAME (425-433) on HLA-A2*01 HEK293T cells pulsed with PRAME 425-433 peptide (human); assay: cell-based or functional assay
[2] = biological target: T1, PRAME peptide on HLA-A*02:01 (human); assay: multimer staining
T1 peptide: SLLQHLIGL

peptide on HLA-A*02:01 = biological target: T2, peptide on HLA-A*02:01 (human); assay: activation reporter or marker
T2 peptide: SLLMWITQC

[3] = biological target: T3, soluble HLA:A2:PRAME (425-433) tetramer (human); assay: flow cytometry, soluble pMHC tetramer on CHO cells expressing the TCR;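 also: CHO cells transfected with vectors encoding full-length paired TCR alpha and beta chains, stained with PRAME/HLA tetramer and read by flow cytometry, each value reflects one listed TCR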
T3 construct: Commercial tetramer (MBL International); construct limits, biotin tag and streptavidin/fluorophore not described; also called PRAME/HLA tetramer reagent; PRAME (425-433)/HLA-A2

[4] = biological target: T4, PRAME peptide on HLA-A*02:01 (human); assay: multimer staining
T4 peptide: RLDQLLRHV

[5] = biological target: T5, soluble HLA-A2:PRAME (312-320) tetramer (human); assay: flow cytometry, soluble pMHC tetramer on CHO cells expressing the TCR
T5 construct: Commercial tetramer (MBL International); construct limits, biotin tag and streptavidin/fluorophore not described; also called PRAME/HLA tetramer reagent

B1: PN42870 (TCR, V domains shown)
V domain 1: TQLLEQSPQFLSIQEGENLTVYCNSSSVFSSLQWYRQEPGEGPVLLVTVVTGGEVKKLKRLTFQFGDARKDSSLHITAAQPGDTGLYLCAENSGGGADGLTFGKGTHLIIQP
V domain 2: DAGVTQSPTHLIKTRGQQVTLRCSPKSGHDTVSWYQQALGQGPQFIFQYYEEEERQRGNFPDRFSGHQFPNYSSELNVNALLLGDSALYLCASSFTDYGYTFGSGTRLTVV
EC50 (µM) of peptide, AP1 luciferase reporter in Jurkat cells expressing the TCR [1]: 0.13 µM | binding result [2]: recognises | binding result (peptide on HLA-A*02:01): no recognition | Cell Frequency ≥1000 MFI, ≥1% (% tetramer positive cells in the Ag+ gate) [3]: 7.27%

B3: PN42450 (TCR, V domains shown)
V domain 1: AQRVTQPEKLLSVFKGAPVELKCNYSYSGSPELFWYVQYSRQRLQLLLRHISRESIKGFTADLNKGETSFHLKKPFAQEEDSAMYYCALGNTDKLIFGTGTRLQVFP
V domain 2: DVKVTQSSRYLVKRTGEKVFLECVQDMDHENMFWYRQDPGLGLRLIYFSYDVKMKEKGDIPEGYSVSREKKERFSLILESASTNQTSMYLCASSSPRTGWYGYTFGSGTRLTVV
EC50 (µM) of peptide, AP1 luciferase reporter in Jurkat cells expressing the TCR [1]: 0.0336 µM | binding result [2]: recognises | binding result (peptide on HLA-A*02:01): no recognition | Cell Frequency ≥1000 MFI, ≥1% (% tetramer positive cells in the Ag+ gate) [3]: 62.2%

B4: PN46777 (TCR, V domains shown)
V domain 1: AQTVTQSQPEMSVQEAETVTLSCTYDTSENNYYLFWYKQPPSRQMILVIRQEAYKQQNATENRFSVNFQKAAKSFSLKISDSQLGDTAMYFCALMEYGNKLVFGAGTILRVKS
V domain 2: DAGITQSPRYKITETGRQVTLMCHQTWSHSYMFWYRQDLGHGLRLIYYSAAADITDKGEVPDGYVVSRSKTENFPLTLESATRSQTSVYFCASSDGTGYYGYTFGSGTRLTVV
notes: stained with anti-mouse TCR constant region antibody H57-597) and full-length chains were expressed on CHO cells
binding result [4]: recognises | Cell Frequency ≥1000 MFI, ≥1% (% tetramer positive cells in the Ag+ gate) [5]: 98.9%

B5: PN46738 (TCR, V domains shown)
V domain 1: AQTVTQSQPEMSVQEAETVTLSCTYDTSENNYYLFWYKQPPSRQMILVIRQEAYKQQNATENRFSVNFQKAAKSFSLKISDSQLGDTAMYFCAFGMYSGGGADGLTFGKGTHLIIQP
V domain 2: B4 V domain 2
notes: as for B4
binding result [4]: recognises | Cell Frequency ≥1000 MFI, ≥1% (% tetramer positive cells in the Ag+ gate) [5]: 23%

B8: PN46909 (TCR, V domains shown)
V domain 1: AQTVTQSQPEMSVQEAETVTLSCTYDTSENNYYLFWYKQPPSRQMILVIRQEAYKQQNATENRFSVNFQKAAKSFSLKISDSQLGDTAMYFCAFDYGQNFVFGPGTRLSVLP
V domain 2: NAGVTQTPKFRILKIGQSMTLQCAQDMNHNYMYWYRQDPGMGLKLIYYSVGAGITDKGEVPNGYNVSRSTTEYFPLRLELAAPSQTSVYFCASSYGGGQTEAFFGQGTRLTVV
notes: as for B4
binding result [4]: recognises | Cell Frequency ≥1000 MFI, ≥1% (% tetramer positive cells in the Ag+ gate) [5]: 52.6%

B9: PN46883 (TCR, V domains shown)
V domain 1: AQKVTQAQTEISVVEKEDVTLDCVYETRDTTYYLFWYKQPPSGELVFLIRRNSFDEQNEISGRYSWNFQKSTSSFNFTITASQVVDSAVYFCALSVSSYNTDKLIFGTGTRLQVFP
V domain 2: NAGVMQNPRHLVRRRGQEARLRCSPMKGHSHVYWYRQLPEEGLKFMVYLQKENIIDESGMPKERFSAEFPKEGPSILRIQQVVRGDSAAYFCASSHRDDTEAFFGQGTRLTVV
notes: as for B4
binding result [4]: recognises | Cell Frequency ≥1000 MFI, ≥1% (% tetramer positive cells in the Ag+ gate) [5]: 64.7%

B15: PN46853 (TCR, V domains shown)
V domain 1: ILNVEQSPQSLHVQEGDSTNFTCSFPSSNFYALHWYRWETAKSPEALFVMTLNGDEKKKGRISATLNTKEGYSYLYIKGSQPEDSATYLCACGGSGNTGKLIFGQGTTLQVKP
V domain 2: AAGVIQSPRHLIKEKRETATLKCYPIPRHDTVYWYQQGPGQDPQFLISFYEKMQSDKGSIPDRFSAQQFSDYHSELNMSSLELGDSALYFCASSSQGQPQHFGDGTRLSIL
notes: as for B4
binding result [4]: recognises | Cell Frequency ≥1000 MFI, ≥1% (% tetramer positive cells in the Ag+ gate) [5]: 35.4%

Further lines, results first:

EC50 (µM) of peptide, AP1 luciferase reporter in Jurkat cells expressing the TCR [1]: 0.261 µM | binding result [2]: recognises | binding result (peptide on HLA-A*02:01): no recognition | Cell Frequency ≥1000 MFI, ≥1% (% tetramer positive cells in the Ag+ gate) [3]: 85.7%
B2: PN42558 (TCR, V domains shown)
V domain 1: GIQVEQSPPDLILQEGANSTLRCNFSDSVNNLQWFHQNPWGQLINLFYIPSGTKQNGRLSATTVATERYSLLYISSSQTTDSGVYFCVLGGGSQGNLIFGKGTKLSVKP
V domain 2: B1 V domain 2

binding result [4]: recognises | Cell Frequency ≥1000 MFI, ≥1% (% tetramer positive cells in the Ag+ gate) [5]: 57.3%
B6: PN46797 (TCR, V domains shown)
V domain 1: B4 V domain 1 with G98E
V domain 2: B4 V domain 2
notes: as for B4

binding result [4]: recognises | Cell Frequency ≥1000 MFI, ≥1% (% tetramer positive cells in the Ag+ gate) [5]: 87.9%
B7: PN46733 (TCR, V domains shown)
V domain 1: GESVGLHLPTLSVQEGDNSIINCAYSNSASDYFIWYKQESGKGPQFIIDIRSNMDKRQGQRVTVLLNKTVKHLSLQIAATQPGDSAVYFCAENNYGQNFVFGPGTRLSVLP
V domain 2: NAGVTQTPKFQVLKTGQSMTLQCAQDMNHNSMYWYRQDPGMGLRLIYYSASEGTTDKGEVPNGYNVSRLNKREFSLRLESAAPSQTSVYFCASSDWGQGVEAFFGQGTRLTVV
notes: as for B4

binding result [4]: recognises | Cell Frequency ≥1000 MFI, ≥1% (% tetramer positive cells in the Ag+ gate) [5]: 53.9%
B10: PN46857 (TCR, V domains shown)
V domain 1: AQKVTQATREISVVEKEDVTLDCVYETRDTTYYLFWYKQPPSGELVFLIRRNSFDEQNEISGRYSWNFQKSTSSFNFTITASQVVDSAVYFCALSEGYGNKLVFGAGTILRVKS
V domain 2: B9 V domain 2
notes: as for B4

binding result [4]: recognises | Cell Frequency ≥1000 MFI, ≥1% (% tetramer positive cells in the Ag+ gate) [5]: 31.9%
B11: PN46880 (TCR, V domains shown)
V domain 1: AQRVTQPEKLLSVFKGAPVELKCNYSYSGSPELFWYVQYSRQRLQLLLRHISRESIKGFTADLNKGETSFHLKKPFAQEEDSAMYYCALSGASGGSYIPTFGRGTSLIVHP
V domain 2: B9 V domain 2
notes: as for B4

binding result [4]: recognises | Cell Frequency ≥1000 MFI, ≥1% (% tetramer positive cells in the Ag+ gate) [5]: 92.5%
B12: PN46889 (TCR, V domains shown)
V domain 1: QKEVEQNSGPLSVPEGAIASLNCTYSDRGSQSFFWYRQYSGKSPELIMSIYSNGDKEDGRFTAQLNKASQYVSLLIRDSQPSDSATYLCAVNIPNSGYSTLTFGKGTMLLVSP
V domain 2: NAGVTQTPKFRVLKTGQSMTLLCAQDMNHEYMYWYRQDPGMGLRLIHYSVGEGTTAKGEVPDGYNVSRLKKQNFLLGLESAAPSQTSVYFCASSYWEGTEAFFGQGTRLTVV
notes: as for B4

binding result [4]: recognises | Cell Frequency ≥1000 MFI, ≥1% (% tetramer positive cells in the Ag+ gate) [5]: 44.7%
B13: PN46871 (TCR, V domains shown)
V domain 1: KQEVTQIPAALSVPEGENLVLNCSFTDSAIYNLQWFRQDPGKGLTSLLLIQSSQREQTSGRLNASLDKSSGRSTLYIAASQPGDSATYLCAVEGTTDSWGKFQFGAGTQVVVTP
V domain 2: B15 V domain 2
notes: as for B4

binding result [4]: recognises | Cell Frequency ≥1000 MFI, ≥1% (% tetramer positive cells in the Ag+ gate) [5]: 15.7%
B14: PN46731 (TCR, V domains shown)
V domain 1: GENVEQHPSTLSVQEGDSAVIKCTYSDSASNYFPWYKQELGKRPQLIIDIRSNVGEKKDQRIAVTLNKTAKHFSLHITETQPEDSAVYFCAAWNYGQNFVFGPGTRLSVLP
V domain 2: B15 V domain 2 with S95L, Q96E, Q98S, P99E, Q100A, H101F, D104Q, S109T, I110V, L111V
notes: as for B4
